Results taken from patent publication US20110045003A1 (SYNOVEX, published 2011).

Tests used:
[1] = target: T1, recombinant Cad-11 EC1 human IgG1 fusion protein (R&D Systems Cat. No. 1790-CA-050) (human, UniProt P55287 54-617, limits assumed); test: competition ELISA on coated recombinant human Cad-11 EC1 fusion; competitor biotinylated SYN0012/H1M1 at 0.1 µg/ml
T1 construct: Bought protein; the catalogue product may hold more of the extracellular region; also called recombinant human Cad-11 EC1; recombinant human Cad-11 fusion protein; not shown: human IgG1 part of the bought fusion protein
T1 sequence: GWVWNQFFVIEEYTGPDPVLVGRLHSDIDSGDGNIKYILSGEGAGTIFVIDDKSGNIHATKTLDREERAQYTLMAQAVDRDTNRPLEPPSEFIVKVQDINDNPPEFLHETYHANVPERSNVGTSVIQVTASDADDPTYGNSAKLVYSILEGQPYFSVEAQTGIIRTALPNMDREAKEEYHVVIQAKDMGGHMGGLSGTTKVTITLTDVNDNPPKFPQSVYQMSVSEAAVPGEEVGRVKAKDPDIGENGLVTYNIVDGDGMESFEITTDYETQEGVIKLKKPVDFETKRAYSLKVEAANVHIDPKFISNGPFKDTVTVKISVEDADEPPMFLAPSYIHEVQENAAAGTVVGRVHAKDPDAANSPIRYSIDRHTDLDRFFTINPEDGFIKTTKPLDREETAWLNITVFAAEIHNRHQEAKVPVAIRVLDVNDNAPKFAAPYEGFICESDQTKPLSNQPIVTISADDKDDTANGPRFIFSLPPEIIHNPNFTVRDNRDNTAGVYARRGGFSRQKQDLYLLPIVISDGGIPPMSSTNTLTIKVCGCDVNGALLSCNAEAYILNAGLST
Method: The binding of the purified humanized composite variant antibodies (SDP011 to SDP151) to a recombinant Cad-11 EC1 human IgG1 fusion protein was assessed in a competition binding ELISA. A dilution series from 5 μg/ml to 0.0022 μg/ml of the humanized or control (SYN0012/H1M1) antibodies was premixed with a constant concentration of biotinylated murine anti-Cad-11 antibody, SYN0012/H1M1 (0.1 μg/ml, final concentration), before incubating for 1 hour at room temperature on a Nunc Immuno MaxiSorp 96 well flat bottom microtitre plate (Fisher Cat. No. DIS-971-030J) pre-coated with 0.25 μg/ml recombinant human Cad-11 EC1 (R&D Systems Cat. No. 1790-CA-050) diluted in PBS. The binding of the biotinylated mAb was detected with streptavidin-HRP (Sigma Cat. No. 55512) and tetramethylbenzidine (TMB) substrate (Invitrogen Cat. No. 00-2023).
The relative IC50 was calculated by dividing the value for the test antibody by that of SYN0012. Antibody expression levels given are for static cultures in T flasks. PI are calculated.

[2] = target: T2, recombinant his-tagged human Cad-11 (R&D Systems) (human, UniProt P55287 54-617); test: SPR, rhCad-11 immobilized, SDP051 as analyte, 2 state reaction model (ka1)
T2 construct: also called rhCad-11; recombinant human Cad-11; not shown: his tag
T2 sequence: T1 sequence
Method: (§1) To determine the affinity of SDP051 for recombinant his-tagged human Cad-11, rhCad-11 (R&D Systems) was immobilized to the chip at a single concentration, high resolution kinetics were determined for SDP051, and a 2-state reaction binding model was successfully fitted to the kinetic data.
(§2) Kinetic data were obtained at a flow rate of 40 μL/min to minimize any potential mass transfer effects. An analyte concentration series ranging from 12.5 nM to 0.195 nM was prepared by serial dilution. Two repeats of the blank (no mAb) and the 3.125 nM (first and last cycle) concentration of the analyte were programmed into the kinetic runs in order to check the stability of both the surface and analyte over the kinetic cycles. The SDP051 was injected over the Fcs for 360 seconds, long enough to observe the curvature in association phase.
(§3) As rhCad-11 is homodimeric and therefore contained two identical binding epitopes, it is likely that individual mAb molecules become bound sequentially through a first binding site and then both binding sites.

[3] = target: T2, recombinant his-tagged human Cad-11 …; test: SPR, rhCad-11 immobilized, SDP051 as analyte, 2 state reaction model
Method: as §1, §2, §3

[4] = target: T3, BSA coupled 37-mer Cad-11 peptide encompassing the Cad-11 immunogen (UniProt P55287 54-90, limits assumed, linked to BSA); test: ELISA on BSA coupled 37-mer cadherin peptides, coat 500 ng/ml
T3 construct: domain: 37-mer peptide encompassing the Cad-11 immunogen; also called Cad-11 antigen; Cad-11 peptide immunogen
T3 peptide (looked up): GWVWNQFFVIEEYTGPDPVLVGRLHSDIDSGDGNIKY
Method: A dilution series from 5 μg/ml to 8 ng/ml in a volume of 100 μl/well of each the humanized anti-Cad-11 antibodies were incubated in the peptide coated wells and incubated at 22° C. for 1 hr. Antibody solution was removed from the wells and the plate washed twice with 200 μl/well of 0.05% Tween-PBS at 22° C. and blotted dry. The goat-anti mouse IgG (Pierce # 31432) was added to each well to plate at a 1:1000 dilution, 100 μl/well and incubate at 22° C. for 30 min. The secondary antibody solution was removed and the plate washed twice with 200 μl/well of 0.05% Tween-PBS at 22° C. and blotted dry. The reaction was developed by adding 100 μl/well tetramethylbenzidine (TMB) reagent IgG (Pierce # 34022, 1 step Turbo TMB-ELISA) to plate and developed at 22° C. for 5 min.
The greatest cross reactivity was seen against Cad-8. […] This assay was repeated with the Cad-11, Cad-8 and Cad-18 antigens with a lower antigen coat concentration of 50 ng/ml and a wider dilution series of the SDP051 antibody (FIG. 41B). […] An EC50 for Cad-18 could not be established due to the low level of binding observed.

[5] = target: T2, recombinant his-tagged human Cad-11 …; test: SPR, rhCad-11 immobilized, SDP051 as analyte, 2 state reaction model (kd1)
Method: as §1, §2, §3

B1: humanized anti-Cad-11 EC1 antibody SDP051 (Vκ1/VH5) (antibody, IgG4, V domains shown)
VH: EVQLVQSGAEVKKPGASVKVSCKASGYSFTGYFMNWVRQAPGQGLEWIGRINPYTGDTFYNQKFKGRVTITVDKSTSTAYMELSSLRSEDTAVYYCGRLGSRYWYFDVWGQGTTVTVSS
VL: DVLMTQTPLSSPVTLGQPASISCRSSQSIIHSNGNTYLEWYLQKPGQSPQLLIYKVSNRFSGVPDRFTGSGSGTDFTLKISRVEAEDVGVYYCFQGSHVPWTFGQGTKLEIK
notes: humanized IgG4 (S241P), kappa
relative IC50 (IC50 of the test antibody divided by that of SYN0012) [1]: 0.99 ratio (column head prints µg/mL) | kon [2]: 613000 M⁻¹ s⁻¹ | Kd [3]: 0.379 nM | fold greater binding to the Cad-11 antigen than to the related antigens from the other cadherins [4]: > 100 fold | koff [5]: 0.0043 s⁻¹
